Laboratory results: IntAct's records for PubMed 19525971

B1: Charged multivesicular body protein 3 (Homo sapiens), Q9Y3E7-1 (parent)
chain: MGLFGKTQEKPPKELVNEWSLKIRKEMRVVDRQIRDIQREEEKVKRSVKDAAKKGQKDVCIVLAKEMIRSRKAVSKLYASKAHMNSVLMGMKNQLAVLRVAGSLQKSTEVMKAMQSLVKIPEIQATMRELSKEMMKAGIIEEMLEDTFESMDDQEEMEEEAEMEIDRILFEITAGALGKAPSKVTDALPEPEPPGAMAASEDEEEEEEALEAMQSRLATLRS
partner: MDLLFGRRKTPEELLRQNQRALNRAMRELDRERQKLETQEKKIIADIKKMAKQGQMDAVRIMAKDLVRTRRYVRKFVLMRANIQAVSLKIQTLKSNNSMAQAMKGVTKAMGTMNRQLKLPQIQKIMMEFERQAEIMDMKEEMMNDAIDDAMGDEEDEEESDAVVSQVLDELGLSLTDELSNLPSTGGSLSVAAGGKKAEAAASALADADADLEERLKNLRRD

Variants of: B1
Conditions: with chm2a_human CHMP2A
With MGLFGKTQEKPPKELVNEWSLKIRKEMRVVDRQIRDIQREEEKVKRSVKDAAKKGQKDDCIDLAKEMIRSRKAVSKLYASKAHMNSVLMGMKNQLAVLRVAGSLQKSTEVMKAMQSLVKIPEIQATMRELSKEMMKAGIIEEMLEDTFESMDDQEEMEEEAEMEIDRDDFEITAGALGKAPSKVTDALPEPEPPGAMAASEDEEEEEEALEAMQSRLATLRS [V59D;V62D;I168D;L169D] the “effect of a mutation on the interaction” value was “disrupting interaction”.
With MGLFGKTQEKPPKELVNEWSLKIRKEMRVVDRQIRDIQREEEKVKRSVKDAAKKGQKDDCIDLAKEMIRSRKAVSKLYASKAHMNSVLMGMKNQLAVLRVAGSLQKSTEVMKAMQSLVKIPEIQATMRELSKEMMKAGIIEEMLEDTFESMDDQEEMEEEAEMEIDRILFEITAGALGKAPSKVTDALPEPEPPGAMAASEDEEEEEEALEAMQSRLATLRS [V59D;V62D] the “effect of a mutation on the interaction” value was “disrupting interaction”.
